Laboratory results from patent US20240270821A1, “GIP/GLP1/GCG TRI-RECEPTOR AGONISTS AND USES THEREOF” (priority 2023, published 2024).

Assays:
Assay in all cases: cell-based or functional assay
hGLP-1R = hGLP-1R (Homo sapiens, UniProt P43220)
[1] = biological target: T1, human GIP receptor (human) (UniProt P48546)
T1 sequence (looked up): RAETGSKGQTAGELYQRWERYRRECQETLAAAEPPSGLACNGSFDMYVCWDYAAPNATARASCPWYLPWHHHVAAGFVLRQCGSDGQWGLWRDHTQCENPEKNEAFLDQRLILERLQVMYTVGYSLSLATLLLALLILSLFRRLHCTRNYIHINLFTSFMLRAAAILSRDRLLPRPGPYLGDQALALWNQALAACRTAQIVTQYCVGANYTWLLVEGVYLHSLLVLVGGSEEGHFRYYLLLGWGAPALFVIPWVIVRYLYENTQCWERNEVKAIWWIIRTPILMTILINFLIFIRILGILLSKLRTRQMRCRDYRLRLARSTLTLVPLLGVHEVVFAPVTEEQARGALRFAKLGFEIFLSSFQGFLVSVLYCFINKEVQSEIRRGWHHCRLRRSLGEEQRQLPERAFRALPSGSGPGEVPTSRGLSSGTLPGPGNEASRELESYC

[2] = biological target: human GLP-1R (SNAP-GLP-1R expressed in HEK293 cells) (human) (UniProt P43220)
[3] = biological target: human glucagon receptor (human) (UniProt P47871)
Sequence of human glucagon receptor (human) (P47871 26-477): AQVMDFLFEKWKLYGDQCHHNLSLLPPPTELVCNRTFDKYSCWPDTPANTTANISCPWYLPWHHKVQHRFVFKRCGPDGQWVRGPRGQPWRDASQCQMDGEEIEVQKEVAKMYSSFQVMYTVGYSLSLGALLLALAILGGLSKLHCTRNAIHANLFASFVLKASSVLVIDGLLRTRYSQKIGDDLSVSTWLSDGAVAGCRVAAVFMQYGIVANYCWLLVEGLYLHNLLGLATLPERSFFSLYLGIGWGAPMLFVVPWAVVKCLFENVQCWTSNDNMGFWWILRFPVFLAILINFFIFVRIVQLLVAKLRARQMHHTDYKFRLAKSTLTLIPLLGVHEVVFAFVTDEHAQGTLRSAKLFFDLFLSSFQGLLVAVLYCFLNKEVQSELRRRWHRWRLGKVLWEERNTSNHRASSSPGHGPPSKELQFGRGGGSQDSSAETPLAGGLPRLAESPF

Sequence of hGLP-1R (P43220 24-463): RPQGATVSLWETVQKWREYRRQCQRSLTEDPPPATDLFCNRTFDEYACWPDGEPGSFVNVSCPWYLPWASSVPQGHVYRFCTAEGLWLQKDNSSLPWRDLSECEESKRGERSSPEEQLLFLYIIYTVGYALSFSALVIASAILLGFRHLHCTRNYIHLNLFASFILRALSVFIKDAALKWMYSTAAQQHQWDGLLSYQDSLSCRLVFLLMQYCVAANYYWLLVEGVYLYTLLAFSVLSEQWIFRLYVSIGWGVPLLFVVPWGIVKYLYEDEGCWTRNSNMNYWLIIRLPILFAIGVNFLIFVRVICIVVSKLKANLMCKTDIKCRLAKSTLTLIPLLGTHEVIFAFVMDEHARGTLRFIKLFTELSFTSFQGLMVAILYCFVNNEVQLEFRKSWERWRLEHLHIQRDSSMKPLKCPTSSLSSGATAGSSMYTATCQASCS
Sequence of human GLP-1R (SNAP-GLP-1R expressed in HEK293 cells) (human) (P43220 24-463): as above

B1: Example 176 (peptide)
chain: YXQGTFTSDFSXXLDKKAQXAFIEWLLEGGTSSGAPPPSGS
modifications: Aib, Orn, αMeL; AEEA-γGlu-C18 diacid Lys; C-term amide; synthetic construct; SITE 2: note = 2-Aminoisobutyric Acid; SITE 12: note = L-ornithine; SITE 13: note = alpha-methyl-leucine; SITE 17: note = Lysine is chemically modified through conjugation of the epsilon-amino group of the Lysine side chain with (2-[2-(2-Amino-ethoxy)-ethoxy]-acetyl)-(gamma-Glu)
Binder B1 has a Relative cAMP EC50, nM (0.1% casein) (hGLP-1R) of 2.92 nM, a cAMP Rel EC50, nM (1% HSA) (hGLP-1R) of 389 nM and a Relative cAMP EC50, nM (0.1% casein) [1] of 0.212 nM. The cAMP Rel EC50, nM (1% HSA) [1] was 40.7 nM, the GLP1R Internalization EC50 [2] was 103 nM and the Internalization % TOP [2] was 48%. The Relative cAMP EC50, nM (0.1% casein) [3] was 4.1 nM and the cAMP Rel EC50, nM (1% HSA) [3] was 461 nM.

B2: Example 200 (peptide)
chain: YXQGTFTSDFSXXLDKKAQXAFIEYLLEXGPSSGAPPPSGT
modifications: non-natural residues, acylated Lys (AEEA-γGlu-C18 diacid), C-terminal amide; synthetic construct; SITE 2: note = 2-Aminoisobutyric Acid; SITE 12: note = L-ornithine; SITE 13: note = alpha-methyl-leucine; SITE 17: note = Lysine is chemically modified through conjugation of the epsilon-amino group of the Lysine side chain with (2-[2-(2-Amino-ethoxy)-ethoxy]-acetyl)-(gamma-Glu)
B2 was tested, and the Relative cAMP EC50 (hGLP-1R) was 3.19 nM, the cAMP Rel EC50, nM (1% HSA) (hGLP-1R) was 395 nM and the Relative cAMP EC50 [1] was 0.0739 nM. It also gave a cAMP Rel EC50, nM (1% HSA) [1] of 13.7 nM, a GLP1R Internalization EC50 [2] of 86.1 nM and an Internalization % TOP [2] of 39.2%. For the same binder, the Relative cAMP EC50 [3] was 2.83 nM and the cAMP Rel EC50, nM (1% HSA) [3] was 360 nM.

B3: Example 186 (peptide)
chain: YXQGTFTSDFSXXLDKKAQXAFIEYLLEXGHSSGAPPPSGE
modifications: Aib, Orn, αMeL; AEEA2-γGlu-C18 diacid acyl; C-terminal amide; synthetic construct; SITE 2: note = 2-Aminoisobutyric Acid; SITE 12: note = L-ornithine; SITE 13: note = alpha-methyl-leucine; SITE 17: note = Lysine is chemically modified through conjugation of the epsilon-amino group of the Lysine side chain with (2-[2-(2-Amino-ethoxy)-ethoxy]-acetyl)2-(gamma-Glu)
Work on B3 yielded a Relative cAMP EC50, nM (0.1% casein) (hGLP-1R) of 5.26 nM, a cAMP Rel EC50, nM (1% HSA) (hGLP-1R) of 690 nM and a Relative cAMP EC50, nM (0.1% casein) [1] of 0.107 nM. For the same binder, the cAMP Rel EC50, nM (1% HSA) [1] was 18 nM, the GLP1R Internalization EC50 [2] was 124 nM and the Internalization % TOP [2] was 41.1%. For the same binder, the Relative cAMP EC50, nM (0.1% casein) [3] was 4.67 nM and the cAMP Rel EC50, nM (1% HSA) [3] was 1280 nM.

B4: Example 172 (peptide)
chain: YXQGTFTSDFSXXLDKKAQXAFIEWLLEGGSSSGAPPPSGE
modifications: Aib, Orn, αMeL, acylated Lys, amide; synthetic construct; SITE 2: note = 2-Aminoisobutyric Acid; SITE 12: note = L-ornithine; SITE 13: note = alpha-methyl-leucine; SITE 17: note = Lysine is chemically modified through conjugation of the epsilon-amino group of the Lysine side chain with (2-[2-(2-Amino-ethoxy)-ethoxy]-acetyl)-(gamma-Glu)
Work on B4 yielded a Relative cAMP EC50, nM (0.1% casein) (hGLP-1R) of 3.5 nM, a cAMP Rel EC50, nM (1% HSA) (hGLP-1R) of 457 nM and a Relative cAMP EC50, nM (0.1% casein) [1] of 0.174 nM. The cAMP Rel EC50, nM (1% HSA) [1] was 29.3 nM, the GLP1R Internalization EC50 [2] was 121 nM and the Internalization % TOP [2] was 41.4%. It also gave a Relative cAMP EC50, nM (0.1% casein) [3] of 3.38 nM and a cAMP Rel EC50, nM (1% HSA) [3] of 605 nM.

B5: Example 171 (peptide)
chain: YXQGTFTSDFSXXLDKKAQXAFIEWLLEGGHSSGAPPPSGT
modifications: Aib, Orn, αMeL; K acylated AEEA-γGlu-C18 diacid; C-terminal amide; synthetic construct; SITE 2: note = 2-Aminoisobutyric Acid; SITE 12: note = L-ornithine; SITE 13: note = alpha-methyl-leucine; SITE 17: note = Lysine is chemically modified through conjugation of the epsilon-amino group of the Lysine side chain with (2-[2-(2-Amino-ethoxy)-ethoxy]-acetyl)-(gamma-Glu)
Binder B5 has a Relative cAMP EC50, nM (0.1% casein) (hGLP-1R) of 2.89 nM, a cAMP Rel EC50, nM (1% HSA) (hGLP-1R) of 287 nM and a Relative cAMP EC50, nM (0.1% casein) [1] of 0.2 nM. It also gave a cAMP Rel EC50, nM (1% HSA) [1] of 27.1 nM, a GLP1R Internalization EC50 [2] of 61.4 nM and an Internalization % TOP [2] of 36.1%. The Relative cAMP EC50, nM (0.1% casein) [3] was 3.86 nM and the cAMP Rel EC50, nM (1% HSA) [3] was 502 nM.

B6: Example 204 (peptide)
chain: YXQGTFTSDFSXXLDKKAQXAFIEYLLEAGPSSGAPPPSGT
modifications: non-natural residues, (γGlu)2-C18 diacid lysine acylation, C-terminal amide; synthetic construct; SITE 2: note = 2-Aminoisobutyric Acid; SITE 12: note = L-ornithine; SITE 13: note = alpha-methyl-leucine; SITE 17: note = Lysine is chemically modified through conjugation of the epsilon-amino group of the Lysine side chain with (gamma-Glu)2-CO-(CH2)16-CO2H; SITE 20: note = 2-Am
With B6 the Relative cAMP EC50 (hGLP-1R) was 2.34 nM, the cAMP Rel EC50, nM (1% HSA) (hGLP-1R) was 306 nM and the Relative cAMP EC50 [1] was 0.181 nM. For the same binder, the cAMP Rel EC50, nM (1% HSA) [1] was 16.7 nM, the GLP1R Internalization EC50 [2] was 66.4 nM and the Internalization % TOP [2] was 45.5%. For the same binder, the Relative cAMP EC50 [3] was 6.92 nM and the cAMP Rel EC50, nM (1% HSA) [3] was 572 nM.

B7: Example 211 (peptide)
chain: YXQGTFTSDFSXXLDKKAQXAFIEYLLEAGPSSGAPPPSGX
modifications: non-natural residues, acylated Lys, C-terminal amide; synthetic construct; SITE 2: note = 2-Aminoisobutyric Acid; SITE 12: note = L-ornithine; SITE 13: note = alpha-methyl-leucine; SITE 17: note = Lysine is chemically modified through conjugation of the epsilon-amino group of the Lysine side chain with (2-[2-(2-Amino-ethoxy)-ethoxy]-acetyl)-(gamma-Glu)
B7 showed a Relative cAMP EC50 (hGLP-1R) of 1.23 nM, a cAMP Rel EC50, nM (1% HSA) (hGLP-1R) of 234 nM and a Relative cAMP EC50 [1] of 0.116 nM. It also gave a cAMP Rel EC50, nM (1% HSA) [1] of 20.6 nM, a GLP1R Internalization EC50 [2] of 57.4 nM and an Internalization % TOP [2] of 26.9%. It also gave a Relative cAMP EC50 [3] of 2.05 nM and a cAMP Rel EC50, nM (1% HSA) [3] of 370 nM.

B8: Example 212 (peptide)
chain: YXQGTFTSDFSXXLDKKAQXAFIEYLLEAGPSSGAPPPSGS
modifications: Aib, Orn, αMeL, D-Ala; acylated Lys; synthetic construct; SITE 2: note = 2-Aminoisobutyric Acid; SITE 12: note = L-ornithine; SITE 13: note = alpha-methyl-leucine; SITE 17: note = Lysine is chemically modified through conjugation of the epsilon-amino group of the Lysine side chain with (2-[2-(2-Amino-ethoxy)-ethoxy]-acetyl)-(gamma-Glu)
B8 gave a Relative cAMP EC50 (hGLP-1R) of 1.35 nM, a Relative cAMP EC50 [1] of 0.13 nM and a GLP1R Internalization EC50 [2] of 79.7 nM. For the same binder, the Internalization % TOP [2] was 43% and the Relative cAMP EC50 [3] was 3.74 nM.

B9: Example 174 (peptide)
chain: YXQGTFTSDFSXXLDKKAQXAFIEWLLEGGSSSGAPPPSGT
modifications: non-natural residues, acylated Lys, C-terminal amide; synthetic construct; SITE 2: note = 2-Aminoisobutyric Acid; SITE 12: note = L-ornithine; SITE 13: note = alpha-methyl-leucine; SITE 17: note = Lysine is chemically modified through conjugation of the epsilon-amino group of the Lysine side chain with (2-[2-(2-Amino-ethoxy)-ethoxy]-acetyl)-(gamma-Glu)
For B9, the Relative cAMP EC50, nM (0.1% casein) (hGLP-1R) was 2.33 nM, the cAMP Rel EC50, nM (1% HSA) (hGLP-1R) was 208 nM and the Relative cAMP EC50, nM (0.1% casein) [1] was 0.198 nM. The cAMP Rel EC50, nM (1% HSA) [1] was 20.8 nM, the GLP1R Internalization EC50 [2] was 123 nM and the Internalization % TOP [2] was 52.8%. For the same binder, the Relative cAMP EC50, nM (0.1% casein) [3] was 4.24 nM and the cAMP Rel EC50, nM (1% HSA) [3] was 307 nM.

B10: Example 173 (peptide)
chain: YXQGTFTSDFSXXLDKKAQXAFIEWLLEGGSSSGAPPPSGS
modifications: non-natural residues; lipidated Lys AEEA-γGlu-C18 diacid; C-term amide; synthetic construct; SITE 2: note = 2-Aminoisobutyric Acid; SITE 12: note = L-ornithine; SITE 13: note = alpha-methyl-leucine; SITE 17: note = Lysine is chemically modified through conjugation of the epsilon-amino group of the Lysine side chain with (2-[2-(2-Amino-ethoxy)-ethoxy]-acetyl)-(gamma-Glu)
B10 showed a Relative cAMP EC50, nM (0.1% casein) (hGLP-1R) of 2.32 nM, a cAMP Rel EC50, nM (1% HSA) (hGLP-1R) of 293 nM and a Relative cAMP EC50, nM (0.1% casein) [1] of 0.168 nM. The cAMP Rel EC50, nM (1% HSA) [1] was 49.9 nM, the GLP1R Internalization EC50 [2] was 97.1 nM and the Internalization % TOP [2] was 38.6%. For the same binder, the Relative cAMP EC50, nM (0.1% casein) [3] was 3.6 nM and the cAMP Rel EC50, nM (1% HSA) [3] was 745 nM.

B11: Example 179 (peptide)
chain: YXQGTFTSDFSXXLDKKAQXAFIEYLLEXGESSGAPPPSGS
modifications: non-natural residues (Aib, Orn, αMeL); lipidated K; C-terminal amide; synthetic construct; SITE 2: note = 2-Aminoisobutyric Acid; SITE 12: note = L-ornithine; SITE 13: note = alpha-methyl-leucine; SITE 17: note = Lysine is chemically modified through conjugation of the epsilon-amino group of the Lysine side chain with (2-[2-(2-Amino-ethoxy)-ethoxy]-acetyl)2-(gamma-Glu)
B11 showed a Relative cAMP EC50, nM (0.1% casein) (hGLP-1R) of 5.81 nM, a cAMP Rel EC50, nM (1% HSA) (hGLP-1R) of 904 nM and a Relative cAMP EC50, nM (0.1% casein) [1] of 0.104 nM. It also gave a cAMP Rel EC50, nM (1% HSA) [1] of 21.3 nM, a GLP1R Internalization EC50 [2] of 63.4 nM and an Internalization % TOP [2] of 48.4%. It also gave a Relative cAMP EC50, nM (0.1% casein) [3] of 4.82 nM and a cAMP Rel EC50, nM (1% HSA) [3] of 1440 nM.
